Assays:
human C1q (human) = human C1q (human) (UniProt P02745)
[1] = target: recombinant human CD64 (human) (UniProt P12314)
[2] = target: recombinant human CD16a (human) (UniProt P08637)
[3] = target: recombinant human CD32a (human) (UniProt P12318)
recombinant human CD32a (human), sequence (P12318 34-217): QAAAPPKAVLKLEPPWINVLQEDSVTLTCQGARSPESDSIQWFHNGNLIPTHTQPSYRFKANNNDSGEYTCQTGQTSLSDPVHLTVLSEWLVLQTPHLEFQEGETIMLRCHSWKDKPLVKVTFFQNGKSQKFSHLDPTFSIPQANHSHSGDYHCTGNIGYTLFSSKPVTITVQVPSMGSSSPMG

human C1q (human), sequence (P02745 23-245 limits assumed, chain 1 of 3): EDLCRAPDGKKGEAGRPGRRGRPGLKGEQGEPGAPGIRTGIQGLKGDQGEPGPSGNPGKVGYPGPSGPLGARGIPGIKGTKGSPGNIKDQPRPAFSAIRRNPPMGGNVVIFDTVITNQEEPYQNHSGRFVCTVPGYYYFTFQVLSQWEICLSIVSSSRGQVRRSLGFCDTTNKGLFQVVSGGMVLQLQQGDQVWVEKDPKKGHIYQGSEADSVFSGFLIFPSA
human C1q (human), sequence (P02746 28-253 limits assumed, chain 2 of 3, further chain): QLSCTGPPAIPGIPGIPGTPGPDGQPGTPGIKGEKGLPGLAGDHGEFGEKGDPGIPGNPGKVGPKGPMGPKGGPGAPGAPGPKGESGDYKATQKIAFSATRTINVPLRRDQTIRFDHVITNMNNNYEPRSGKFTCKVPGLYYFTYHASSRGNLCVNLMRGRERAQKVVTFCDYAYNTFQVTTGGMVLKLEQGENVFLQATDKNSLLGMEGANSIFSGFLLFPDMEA
human C1q (human), sequence (P02747 29-245 limits assumed, chain 3 of 3, further chain): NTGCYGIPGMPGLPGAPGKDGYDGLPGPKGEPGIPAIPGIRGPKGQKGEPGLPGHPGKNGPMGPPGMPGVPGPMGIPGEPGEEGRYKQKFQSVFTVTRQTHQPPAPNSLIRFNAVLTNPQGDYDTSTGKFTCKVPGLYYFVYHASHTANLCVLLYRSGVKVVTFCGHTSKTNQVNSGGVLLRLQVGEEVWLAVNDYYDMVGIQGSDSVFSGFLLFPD
recombinant human CD64 (human), sequence (P12314 16-288 limits assumed): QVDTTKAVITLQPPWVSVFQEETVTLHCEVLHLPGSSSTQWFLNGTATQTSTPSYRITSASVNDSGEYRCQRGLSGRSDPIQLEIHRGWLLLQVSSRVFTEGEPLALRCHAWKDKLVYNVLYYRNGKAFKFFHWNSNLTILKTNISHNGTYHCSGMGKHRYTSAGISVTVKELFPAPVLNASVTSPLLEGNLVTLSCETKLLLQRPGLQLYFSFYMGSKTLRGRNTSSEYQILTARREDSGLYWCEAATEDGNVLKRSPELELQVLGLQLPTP
recombinant human CD16a (human), sequence (P08637 17-208 limits assumed): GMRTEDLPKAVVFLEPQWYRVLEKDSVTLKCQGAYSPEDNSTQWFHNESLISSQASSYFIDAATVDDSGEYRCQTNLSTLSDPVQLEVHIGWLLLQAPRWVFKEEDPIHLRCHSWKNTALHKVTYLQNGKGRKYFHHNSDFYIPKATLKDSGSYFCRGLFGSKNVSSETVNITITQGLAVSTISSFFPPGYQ

- EC50 (human C1q (human)): 14.1 nM
- EC50 [1]: 0.12 nM
- EC50 [2]: 3.7 nM
- EC50 [3]: 14 nM
Substance: isotype mAb with human IgG1 (antibody)
